The values below come from publication PMC2394487, “Improved radiotracing of oxytocin receptor-expressing tumours using the new [^111In]-DOTA-Lys^8-deamino-vasotocin analogue” (British Journal of Cancer, 2003).

Positions of bridges follow the written chain, without caps; N, C: chain ends. Non-standard residues stand in square brackets, D forms with d. Residues, ends and D or L forms follow the SMILES beside them. *: point of attachment. DOTA = O=C(O)CN1CCN(CC(=O)O)CCN(CC(=O)*)CCN(CC(=O)O)CC1; Mpa = O=C(O)CCS

One data set relates to OTR+ TS/A tumours. As to the kind of experiment: in vivo. Also on record: species or system Balb/c mice. Conditions: mouse; for tissue to tissue ratio at 5 h: female, Balb/c, iv, 74 kBq, total radioactivity. The protocol: To determine the amount and specificity of the receptor-mediated uptake of [^111In]-DOTA-dLVT in tumours, we used an experimental model of OTR+ TS/A tumours growing in Balb/c mice. A total of 10 female Balb/c mice weighing 25 g were subcutaneously injected with TS/A mammary carcinoma (0.3 × 10^6 in 0.2 ml of medium). After 20 days, when the growing tumour had reached about 2 cm in diameter, five mice were intravenously administered 50 μg of cold OT 30 min before the radiotracer and the other five were not. Mice were injected in the tail vein with [^111In]-DOTA-dLVT (average activity: 74 kBq) and killed 5 h later. The organs were collected, washed, weighed and their radioactivity was measured in a gamma-ray detector with well-counter geometry ([…], Milan, Italy) together with standards of the injection mixture. Activity was expressed as the percentage of the injected dose (%ID) g^-1 of tissue, and the uptake ratios of tumour, blood, kidney and liver were calculated. [table]

Another data set deals with T1, human OTR (Homo sapiens, UniProt P30559).
T1 construct: expressed in transfected cells; host or cells: COS7 (monkey kidney), transient electroporation
T1 sequence (P30559 1-389): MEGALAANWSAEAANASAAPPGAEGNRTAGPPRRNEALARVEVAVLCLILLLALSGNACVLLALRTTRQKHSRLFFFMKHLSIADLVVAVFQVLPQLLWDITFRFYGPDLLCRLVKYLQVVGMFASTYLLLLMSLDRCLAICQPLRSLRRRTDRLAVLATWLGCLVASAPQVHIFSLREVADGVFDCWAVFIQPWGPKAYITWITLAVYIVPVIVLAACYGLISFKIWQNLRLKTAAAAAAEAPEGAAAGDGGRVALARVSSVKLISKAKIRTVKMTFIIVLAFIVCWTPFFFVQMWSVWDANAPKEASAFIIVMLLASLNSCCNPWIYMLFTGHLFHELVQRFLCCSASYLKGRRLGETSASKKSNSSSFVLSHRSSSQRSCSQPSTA
The data set is described as follows: [111In]-DOTA-dLVT saturation binding assay, membranes of transfected COS7 cells. The protocol:
Figure 3 Binding of LVT-derived peptides to human OT/AVP receptor subtypes. (A) Comparison of OT and DOTA-dLVT affinity for the human OTR. Competition experiments were performed using membrane preparations of COS7 cells transiently transfected with the wild-type OTR. [^3H]-OT was used at a concentration of 1–2 nM, and nonspecific binding was determined in the presence of […] OT. Data are expressed as the percentage of bound [^3H]-OT in the absence of cold competitor. The curves are representative of three independent assays performed in triplicate. (B) [^111In]-DOTA-dLVT saturation binding assay. The affinity of [^111In]-DOTA-dLVT for the human OTR was measured by incubating increasing amounts of labelled peptide to membrane preparations of COS7 cells transiently transfected with the wild-type OTR. The curve is representative of two independent assays performed in triplicate. […] The membrane preparations of OTR-expressing cells were incubated in the presence of a constant amount of ^3[H]OT (1–2 nM), and nonspecific binding was determined in the presence of 100 μM OT. The membrane preparations of cells expressing V1a, V1b and V2 receptors were incubated in the presence of a constant amount of ^3[H]AVP (2–4 nM), and nonspecific binding was determined in the presence of 100 μM AVP. The data are expressed as percentages of bound [^3H]-ligand in the absence of cold competitor. […]

As usually defined, the Kd is a measure of binding affinity in units of concentration. Read a high Kd as a looser complex. Turning to `CC[C@H](C)[C@@H]1NC(=O)[C@H](Cc2ccc(O)cc2)NC(=O)CCSSC[C@@H](C(=O)N2CCC[C@H]2C(=O)N[C@@H](CCCCNC(=O)CN2CCN(CC(=O)O)CCN(CC(=O)O)CCN(CC(=O)O)CC2)C(=O)NCC(N)=O)NC(=O)[C@H](CC(N)=O)NC(=O)[C@H](CCC(N)=O)NC1=O` [[^111In]-DOTA-dLVT, metal not drawn] ([Mpa]YIQNCPK(DOTA)G-NH2; disulfide 1-6), in the data set on OTR+ TS/A tumours (Tumour/kidney ratio), the tissue to tissue ratio at 5 h came to 0.06. Also, the tissue to tissue ratio at 5 h in the data set with OTR+ TS/A tumours (Tumour/liver ratio) amounted to 1.42. Further, in the data set with OTR+ TS/A tumours, the Tumour/blood ratio is listed as 7.58 and the “decrease in uptake when TS/A tumours were blocked with 50 μg of cold OT” value is reported as “three-fold decrease”. In addition, the Kd at human OTR was 4.5 nM.
